This passage reports Kd results from patent publication US20130184160.

pKd: −log10 of the molar value.

Holding throughout (assay): filter
The target of one data set is T1, Fetuin (UniProt P12763).
T1 sequence: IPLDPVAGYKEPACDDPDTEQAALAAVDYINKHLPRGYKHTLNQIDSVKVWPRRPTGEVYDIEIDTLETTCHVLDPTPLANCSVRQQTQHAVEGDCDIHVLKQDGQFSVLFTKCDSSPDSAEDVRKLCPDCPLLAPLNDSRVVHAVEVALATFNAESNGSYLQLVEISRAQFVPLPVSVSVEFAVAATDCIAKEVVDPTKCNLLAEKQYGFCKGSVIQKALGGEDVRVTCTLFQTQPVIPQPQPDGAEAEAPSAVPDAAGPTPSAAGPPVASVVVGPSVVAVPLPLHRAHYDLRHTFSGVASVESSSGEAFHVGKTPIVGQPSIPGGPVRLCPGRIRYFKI
The note with it: T positions from B-TTP (quinoline-8-boronic acid linked at 5-position of dU via triazole), outside primer; specificity control.

Data set [1] deals with Alpha-1 acid glycoprotein (UniProt P02763). The settings on record: T positions from B-TTP (quinoline-8-boronic acid linked at 5-position of dU via triazole), outside primer; specificity control.
In data set [2] the test system is Fibrinogen (glycosylated, untreated), P02671-2+P02675+P02679. The note with it: T positions from B-TTP; average Kd of pool after round 13.
Chain of Fibrinogen (glycosylated, untreated), P02671-2+P02675+P02679 (P02671 other isoform, or with tags, fused parts or gaps, chain 1 of 3): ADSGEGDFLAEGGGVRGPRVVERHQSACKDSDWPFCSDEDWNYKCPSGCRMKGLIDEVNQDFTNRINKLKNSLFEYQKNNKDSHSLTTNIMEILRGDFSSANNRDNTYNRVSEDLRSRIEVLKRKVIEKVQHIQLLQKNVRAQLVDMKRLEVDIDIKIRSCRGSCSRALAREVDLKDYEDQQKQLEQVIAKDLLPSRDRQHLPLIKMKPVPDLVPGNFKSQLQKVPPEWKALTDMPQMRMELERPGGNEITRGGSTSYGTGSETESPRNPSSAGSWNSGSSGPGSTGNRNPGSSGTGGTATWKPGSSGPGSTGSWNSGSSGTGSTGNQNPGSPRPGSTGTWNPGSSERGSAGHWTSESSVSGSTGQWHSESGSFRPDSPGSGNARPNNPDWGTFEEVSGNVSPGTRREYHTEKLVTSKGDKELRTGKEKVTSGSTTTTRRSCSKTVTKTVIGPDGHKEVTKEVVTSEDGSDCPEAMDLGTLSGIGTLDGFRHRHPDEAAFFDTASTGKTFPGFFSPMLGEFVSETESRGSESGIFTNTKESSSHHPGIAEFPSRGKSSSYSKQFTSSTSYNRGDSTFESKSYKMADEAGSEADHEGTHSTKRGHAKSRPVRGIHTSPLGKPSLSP
Chain of Fibrinogen (glycosylated, untreated), P02671-2+P02675+P02679 (P02675 31-491, chain 2 of 3): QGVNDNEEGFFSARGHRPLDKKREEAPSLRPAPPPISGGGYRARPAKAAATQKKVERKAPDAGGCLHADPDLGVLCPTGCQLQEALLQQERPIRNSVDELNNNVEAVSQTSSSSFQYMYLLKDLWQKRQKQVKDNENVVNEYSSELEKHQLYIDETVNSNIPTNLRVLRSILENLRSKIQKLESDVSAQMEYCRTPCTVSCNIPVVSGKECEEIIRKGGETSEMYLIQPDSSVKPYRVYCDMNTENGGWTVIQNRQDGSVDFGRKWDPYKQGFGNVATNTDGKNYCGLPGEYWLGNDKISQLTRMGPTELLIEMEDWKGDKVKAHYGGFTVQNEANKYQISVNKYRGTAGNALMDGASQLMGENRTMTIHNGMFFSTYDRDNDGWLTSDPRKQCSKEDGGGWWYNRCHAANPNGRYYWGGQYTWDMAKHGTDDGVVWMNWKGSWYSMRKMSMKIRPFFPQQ
Chain of Fibrinogen (glycosylated, untreated), P02671-2+P02675+P02679 (P02679 27-453, chain 3 of 3): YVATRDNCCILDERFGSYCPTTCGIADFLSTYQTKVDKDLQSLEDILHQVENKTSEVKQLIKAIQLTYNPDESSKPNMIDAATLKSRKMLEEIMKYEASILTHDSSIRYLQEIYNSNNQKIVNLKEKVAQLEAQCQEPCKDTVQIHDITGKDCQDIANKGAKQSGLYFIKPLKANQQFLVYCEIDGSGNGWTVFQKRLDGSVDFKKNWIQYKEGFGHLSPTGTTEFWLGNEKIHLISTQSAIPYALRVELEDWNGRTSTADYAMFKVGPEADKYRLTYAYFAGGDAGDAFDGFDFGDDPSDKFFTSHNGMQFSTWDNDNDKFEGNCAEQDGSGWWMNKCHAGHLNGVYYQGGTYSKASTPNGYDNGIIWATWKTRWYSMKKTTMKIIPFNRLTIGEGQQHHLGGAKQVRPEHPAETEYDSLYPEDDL

Chain of Alpha-1 acid glycoprotein (P02763 19-201): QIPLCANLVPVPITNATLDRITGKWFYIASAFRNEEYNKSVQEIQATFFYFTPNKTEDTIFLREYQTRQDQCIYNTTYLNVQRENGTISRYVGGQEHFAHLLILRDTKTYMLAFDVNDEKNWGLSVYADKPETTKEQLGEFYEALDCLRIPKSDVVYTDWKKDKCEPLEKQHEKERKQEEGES

As for “CCTTCGTTGTCTGCCTTCGTAGCGGATCGAATTACGCGTTAACGGCAACCGATAACGGGACCGATTGCACACCCTTCAGAATTCGCACCA [85A B-TTP (114H)]”, the results for the pKd (with Fetuin; in data set [1]) were 5.66 and 6.15, respectively.

For “CCTTCGTTGTCTGCCTTCGTNNNNNNNNNNNNNNNNNNNNNNNNNNNNNNNNNNNNNNNNNNNNNNNNNNACCCTTCAGAATTCGCACCA [Round 13 fibrinogen pool]”, in data set [2], the pKd was 5.30.

As usually defined, the pKd is −log10 of the Kd, conventionally taken in molar units. A high value points to a small Kd.
